Measured values reported in article PMC8262983.

Target: recombinant 6×His-HSP70 (P. falciparum)

B1: recombinant 6×His-HSP40 (natural protein)
chain: MFFSSGFPFDSMGGQQARRKREVNNNKFYEVLNLKKNCTTDEVKKAYRKLAIIHHPDKGGDPEKFKEISRAYEVLSDEEKRKLYDEYGEEGLENGEQPADATDLFDFILNAGKGKKKRGEDIVSEVKVTLEQLYNGATKKLAISKDIICTNCEGHGGPKDAKVDCKQCNGRGTKTYMRYHSSVLHQTEVTCNTCRGKGKIFNEKDKCANCKGMCVLKTRKIIEVYIPKGAPNKHKIVFNGEADEKPNVITGNLVVILNEKQHPVFRREGIDLFMNYKISLYESLTGFVAEVTHLDERKILVNCTNSGFIRHGDIREVLDEGMPTYKDPFKKGNLYITFEVEYPMDLIITNENKEVLKILKKQNEVEKKYDLENSELEVVSCSPVDKEYIKVRVTKQQQQQQQEAYDDEDHQPEMEGGRVACAQQ
Binder B1 has an ATPase activity of HSP70 (EnzChek phosphate assay; 45 μg HSP70 with 8.9 μg HSP40 against HSP70 alone) of 3 fold.
